Results from patent US20100166741A1 (Genentech, published 2010).

T1: mouse FcγRI extracellular domain, His-tagged GST fusion (mouse, UniProt P26151 25-297)
T1 construct: extracellular domain; also called Mouse I; mFcγRI; not shown: His tag and GST
T1 sequence (looked up): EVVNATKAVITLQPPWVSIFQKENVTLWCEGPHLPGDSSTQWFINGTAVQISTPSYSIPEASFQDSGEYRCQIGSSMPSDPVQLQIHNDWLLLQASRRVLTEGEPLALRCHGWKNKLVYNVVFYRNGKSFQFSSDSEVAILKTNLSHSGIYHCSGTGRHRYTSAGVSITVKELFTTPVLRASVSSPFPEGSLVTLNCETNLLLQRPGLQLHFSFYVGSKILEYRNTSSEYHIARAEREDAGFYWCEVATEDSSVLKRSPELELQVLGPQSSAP

T2: mouse FcγRII extracellular domain, His-tagged GST fusion (mouse, UniProt P08101 30-210)
T2 construct: extracellular domain; also called Mouse II; not shown: His tag and GST
T2 sequence (looked up): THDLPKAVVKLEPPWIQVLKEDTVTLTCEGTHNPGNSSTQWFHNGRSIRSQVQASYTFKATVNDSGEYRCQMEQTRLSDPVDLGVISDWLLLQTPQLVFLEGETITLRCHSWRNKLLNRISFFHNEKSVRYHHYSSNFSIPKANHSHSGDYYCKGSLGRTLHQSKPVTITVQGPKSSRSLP

T3: mouse FcγRIII extracellular domain, His-tagged GST fusion (mouse, UniProt P08508 31-215)
T3 construct: extracellular domain; also called Mouse III; not shown: His tag and GST
T3 sequence (looked up): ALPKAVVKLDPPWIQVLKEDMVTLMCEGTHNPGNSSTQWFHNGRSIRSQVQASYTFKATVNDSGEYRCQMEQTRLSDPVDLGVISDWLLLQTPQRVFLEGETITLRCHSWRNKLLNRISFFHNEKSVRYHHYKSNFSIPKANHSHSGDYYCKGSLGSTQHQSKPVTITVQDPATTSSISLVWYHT

T4: human FcγRIIb extracellular domain, His-tagged GST fusion (human, UniProt P31994 43-217)
T4 construct: extracellular domain; also called hFcgRIIb; CD32B; not shown: C-terminal Gly/His6/GST tag
T4 sequence (looked up): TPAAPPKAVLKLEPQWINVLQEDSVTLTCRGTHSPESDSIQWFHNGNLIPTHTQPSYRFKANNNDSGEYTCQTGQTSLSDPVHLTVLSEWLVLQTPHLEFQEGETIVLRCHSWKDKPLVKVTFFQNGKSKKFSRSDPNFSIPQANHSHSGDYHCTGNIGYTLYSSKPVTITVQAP

T5: human FcγRIIa extracellular domain, His-tagged GST fusion (human, UniProt P12318 34-217)
T5 construct: extracellular domain; also called hFcgRIIa; CD32A; not shown: C-terminal Gly/His6/GST tag
T5 sequence (looked up): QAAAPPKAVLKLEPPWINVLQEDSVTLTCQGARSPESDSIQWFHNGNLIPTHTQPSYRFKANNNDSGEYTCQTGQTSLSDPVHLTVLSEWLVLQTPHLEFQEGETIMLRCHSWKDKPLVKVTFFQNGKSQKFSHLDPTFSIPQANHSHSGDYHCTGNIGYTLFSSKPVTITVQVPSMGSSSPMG


Legend:
[1] = molecular target: T6, human FcγRIIIa (F158) extracellular domain, His-tagged GST fusion (human, UniProt P08637 17-208); assay: Fcγ receptor ELISA; bar = fold change in binding relative to Herceptin (EC50 Herceptin/EC50 sample), log axis 0.1-100
T6 construct: extracellular domain; also called hFcgRIII (F158); FcγRIII (F158 allele); not shown: C-terminal Gly/His6/GST tag

[2] = molecular target: T1, mouse FcγRI extracellular domain, …; assay: as above
[3] = molecular target: T2, mouse FcγRII extracellular domain, …; assay: as above
[4] = molecular target: T3, mouse FcγRIII extracellular domain, …; assay: as above
[5] = molecular target: T7, human FcγRI extracellular domain, His-tagged GST fusion (human, UniProt P12314 16-292); assay: as above
T7 construct: extracellular domain; also called hFcgRI; FcγRIA; not shown: C-terminal Gly/His6/GST tag

[6] = molecular target: T4, human FcγRIIb extracellular domain, …; assay: ELISA, captured FcγR-GST;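 note: antibody variants applied as dilution series to receptor wells, with retained antibody read out via an HRP-linked goat F(ab′)2 fragment recognizing human Fab′2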
[7] = molecular target: T1, mouse FcγRI extracellular domain, …; assay: ELISA, captured FcγR-GST;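 note: antibody variants applied as dilution series to receptor wells, with retained antibody read out via an HRP-linked goat F(ab′)2 fragment recognizing human Fab′2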
[8] = molecular target: T2, mouse FcγRII extracellular domain, …; assay: ELISA, captured FcγR-GST;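 note: antibody variants applied as dilution series to receptor wells, with retained antibody read out via an HRP-linked goat F(ab′)2 fragment recognizing human Fab′2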
[9] = molecular target: T3, mouse FcγRIII extracellular domain, …; assay: ELISA, captured FcγR-GST;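 note: antibody variants applied as dilution series to receptor wells, with retained antibody read out via an HRP-linked goat F(ab′)2 fragment recognizing human Fab′2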
[10] = molecular target: T7, human FcγRI extracellular domain, …; assay: ELISA, captured FcγR-GST
[11] = molecular target: T5, human FcγRIIa extracellular domain, …; assay: ELISA, captured FcγR-GST
[12] = molecular target: T7, human FcγRI extracellular domain, …; assay: ELISA, FcγR-His-GST captured by anti-GST
[13] = molecular target: T8, human BR3 on the cell surface (BJAB cells; primary human B cells) (human, UniProt Q96RJ3 1-184); assay: competition with 25 nM FLAG-BAFF on BJAB cells
T8 construct: whole, on cells; also called BAFF-R; cell surface BR3

[14] = molecular target: T8, human BR3 on the cell surface (BJAB …); assay: direct binding to BJAB cells, anti-human IgG Fc-HRP
[15] = molecular target: T4, human FcγRIIb extracellular domain, …; assay: ELISA, FcγR-His-GST captured by anti-GST, complexed IgG
[16] = molecular target: T5, human FcγRIIa extracellular domain, …; assay: as above
[17] = molecular target: T9, human BR3 extracellular domain (human, UniProt Q96RJ3 1-78); assay: BIAcore, BR3 ECD on chip, IgG in solution, 1:1 Langmuir model
T9 construct: extracellular domain; also called BR3 ECD; Br3 ECD WT

[18] = molecular target: T9, human BR3 extracellular domain; assay: BIAcore, IgG on chip, BR3 ECD in solution, 1:1 Langmuir model
[19] = molecular target: T9, human BR3 extracellular domain; assay: BIAcore, BR3 ECD on chip, IgG in solution, bivalent analyte model
[20] = molecular target: human FcγRIII (CD16) on NK cells (human, UniProt P08637 17-254); assay: cell-based or functional assay
[21] = molecular target: T8, human BR3 on the cell surface (BJAB …); assay: BJAB binding assay

Binder	IC50 [13] [pM]	EC50 [14] [pM]	Kd [17] [pM]	koff [17] [s⁻¹]	kon [17] [M⁻¹ s⁻¹]	Kd [18] [pM]	koff [18] [s⁻¹]	kon [18] [M⁻¹ s⁻¹]	Kd [19] [pM]	koff [19] [s⁻¹]	kon [19] [M⁻¹ s⁻¹]	binding result [21]	further results
V3(5) (antibody, human IgG1, kappa, also called V3-46s S298A/K326A/E333A/K334A) heavy chain: EVQLVESGGGLVQPGGSLRLSCAASGFTISSSSIHWVRQAPGKGLEWVAWVLPSVGFTDYADSVKGRFTISADTSKNTAYLQMNSLRAEDTAVYYCARRVCYNRLGVCAGGMDYWGQGTLVTVSSASTKGPSVFPLAPSSKSTSGGTAALGCLVKDYFPEPVTVSWNSGALTSGVHTFPAVLQSSGLYSLSSVVTVPSSSLGTQTYICNVNHKPSNTKVDKKVEPKSCDKTHTCPPCPAPELLGGPSVFLFPPKPKDTLMISRTPEVTCVVVDVSHEDPEVKFNWYVDGVEVHNAKTKPREEQYNATYRVVSVLTVLHQDWLNGKEYKCKVSNAALPAPIAATISKAKGQPREPQVYTLPPSREEMTKNQVSLTCLVKGFYPSDIAVEWESNGQPENNYKTTPPVLDSDGSFFLYSKLTVDKSRWQQGNVFSCSVMHEALHNHYTQKSLSLSPG light chain: DIQMTQSPSSLSASVGDRVTITCRASQDVSTAVAWYQQKPGKAPKLLIYSASFLYSGVPSRFSGSGSGTDFTLTISSLQPEDFATYYCQQSQISPPTFGQGTKVEIKRTVAAPSVFIFPPSDEQLKSGTASVVCLLNNFYPREAKVQWKVDNALQSGNSQESVTEQDSKDSTYSLSSTLTLSKADYEKHKVYACEVTHQGLSSPVTKSFNRGEC													binding result [1]: binds; binding result [2]: binds; binding result [3]: binds; binding result [4]: binds; binding result [5]: binds
Hu9.1RF IgG1 (antibody, Humanized IgG1 with normal (fucosylated) glycans; also called WT; WT(9.1RF)) heavy: not shown light: DIQMTQSPSSLSASVGDRVTITCKSSQSLLYSSNQNNYLAWYQQKPGKAPKLLIYWASTRESGVPSRFSGSGSGTDFTLTISSLQPEDFATYYCQQYYTYPYTFGQGTKVEIKRTVAAPSVFIFPPSDEQLKSGTASVVCLLNNFYPREAKVQWKVDNALQSGNSQESVTEQDSKDSTYSLSSTLTLSKADYEKHKVYACEVTHQGLSSPVTKSFNRGEC	8800	920	30	5.21e-05	1.99e+06	250	0.000253	995000	520	0.000339	658000		fold improvement in binding vs Herceptin (EC50herceptin/EC50sample) [6]: 0.7 fold; fold improvement in binding vs Herceptin (EC50herceptin/EC50sample) [7]: 1.2 fold; fold improvement in binding vs Herceptin (EC50herceptin/EC50sample) [8]: 0.7 fold; fold improvement in binding vs Herceptin (EC50herceptin/EC50sample) [9]: 0.8 fold; fold improvement in binding vs Herceptin (EC50herceptin/EC50sample) [10]: 1 fold; fold improvement in binding vs Herceptin (EC50herceptin/EC50sample) [11]: 2.3 fold; binding relative to 9.1-RF [12]: 1; binding relative to 9.1-RF [15]: 1; binding relative to 9.1-RF [16]: 1
afucosylated Hu9.1RF IgG1 (antibody, N-linked Fc carbohydrate lacks fucose (made in a cell line lacking fucosyltransferase; 100% afucosylated by paragraph 557), also called AF Hu9.1RF IgG1; Hu9.1RF IgG1 AF) heavy: not shown light: DIQMTQSPSSLSASVGDRVTITCKSSQSLLYSSNQNNYLAWYQQKPGKAPKLLIYWASTRESGVPSRFSGSGSGTDFTLTISSLQPEDFATYYCQQYYTYPYTFGQGTKVEIKRTVAAPSVFIFPPSDEQLKSGTASVVCLLNNFYPREAKVQWKVDNALQSGNSQESVTEQDSKDSTYSLSSTLTLSKADYEKHKVYACEVTHQGLSSPVTKSFNRGEC	3600	490	40	5.41e-05	1.49e+06	230	0.000199	852000	280	0.000149	532000		ADCC EC50 on BJAB cells with NK cells, improvement over 2% afucosylated Hu9.1RF IgG1 [20]: > 6 fold; ADCC percent cytotoxicity on BJAB cells with NK cells, increase over 2% afucosylated Hu9.1RF IgG1 [20]: > 3 fold

Continued, in another order:

IC50 [13] [pM]	EC50 [14] [pM]	Kd [17] [pM]	koff [17] [s⁻¹]	kon [17] [M⁻¹ s⁻¹]	Kd [18] [pM]	koff [18] [s⁻¹]	kon [18] [M⁻¹ s⁻¹]	Kd [19] [pM]	koff [19] [s⁻¹]	kon [19] [M⁻¹ s⁻¹]	binding result [21]	Binder	further results
											binds	V3-1m (antibody, mouse IgG2a, V domains shown, also called mV3-1) VH: EVQLVESGGGLVQPGGSLRLSCAASGFTISSNSIHWVRQAPGKGLEWVAWITPSDGNTDYADSVKGRFTISADTSKNTAYLQMNSLRAEDTAVYYCARRVCYNRLGVCAGGMDYWGQGTLVTVSS VL: DIQMTQSPSSLSASVGDRVTITCRASQDVSTAVAWYQQKPGKAPKLLIYSASFLYSGVPSRFSGSGSGTDFTLTISSLQPEDFATYYCQQSRITPPTFGQGTKVEIKR	
											binds	V3-1h (antibody, human IgG1, V domains shown) VH: EVQLVESGGGLVQPGGSLRLSCAASGFTISSNSIHWVRQAPGKGLEWVAWITPSDGNTDYADSVKGRFTISADTSKNTAYLQMNSLRAEDTAVYYCARRVCYNRLGVCAGGMDYWGQGTLVTVSS VL: DIQMTQSPSSLSASVGDRVTITCRASQDVSTAVAWYQQKPGKAPKLLIYSASFLYSGVPSRFSGSGSGTDFTLTISSLQPEDFATYYCQQSRITPPTFGQGTKVEIKR	
